Reference: paper PMC4114240
Values joined by “and” are separate entries in the source; they are usually repeats but may differ in a detail not shown here. Equal entries are not always repeated.

Molecular target: Xanthomonas campestris pv. campestris RpfB with an N-terminal hexahistidine tag (Xanthomonas campestris pv. campestris 8004)
Experiment: SEC

With “Xanthomonas campestris pv. campestris RpfB with an N-terminal hexahistidine tag (enzyme)” the stoichiometry N was 3 and 6.
